According to the Immune Epitope Database (IEDB):

Biological target: HLA-A*02:01
Assay: IEDB peptide-MHC binding, purified MHC/competitive/radioactivity; ≥ and ≤ were set here for values at or beyond the usual limits of such assays
Settings: source organism: Human alphaherpesvirus 1

| Sequence | IC50 |
| --- | --- |
| KTWFLVPLI | 0.0017 µM |
| LLGGVMAAV | 0.025 µM |
| LLFVLLVAL | 1.13 µM |
| RLAEAVVSA | 0.075 µM |
| ALGERLDAV | 0.025 µM |
| KMDIDVEYL | 0.148 µM |
| FLLKQFHAA | 0.053 µM |
| TLLDFAHGL | 0.01 µM |
| LLDDLGFSA | 0.046 µM |
| GLFFSVYAL | 0.023 µM |
| GPGDPDVYL | 30.6 µM |
| FADTVVACV | 0.059 µM |
| RLNNRPIAV | 0.02 µM |
| RLMNDWAEV | 0.024 µM |
| LLDTGPFSA | 0.093 µM |
| TIHCFFFAV | 0.108 µM |
| ITMGMPYAV | 0.023 µM |
| ILFLWSFLV | 0.00036 µM |
| LMDGHTGMV | 0.184 µM |
| FLSRPINTI | 0.528 µM |
| SLFDCIVPV | 0.00017 µM |
| FMQPDNANL | 0.047 µM |

| Sequence | IC50 |
| --- | --- |
| LLLNTTLTV | 0.0029 µM |
| LLAVAVYAV | 0.0058 µM |
| RMFGMPTAL | 0.0055 µM |
| ALSALLTKL | 0.313 µM |
| LLMACAFWC | 0.974 µM |
| FVWQERAAV | 0.261 µM |
| EMADTFLDT | 1.77 µM |
| YLACELLPA | 0.0047 µM |
| RLLEVMDSL | 0.144 µM |
| RLQFGPPPV | 0.011 µM |
| LLLMGCDIV | 0.094 µM |
| GLAVVLWSL | 0.017 µM |
| KLLALLGQV | 0.033 µM |
| VLDEVMSTL | 0.045 µM |
| YILNKPVFI | 0.052 µM |
| SLLDSLLVM | 0.076 µM |
| RLDALVVAA | 0.044 µM |
| ALQTDNYTL | 0.029 µM |
| GLWVCATSL | 0.036 µM |
| FTLPVLTFV | 0.0011 µM |
| SLMNVDAAV | 0.0097 µM |
| MLIKGVDLV | 0.016 µM |

| Sequence | IC50 |
| --- | --- |
| FAASANFFL | 0.142 µM |
| FILDNPGFV | 0.011 µM |
| VTFDTLFMV | 0.0087 µM |
| LLLAGTPAV | 0.017 µM |
| LLMGCDIVL | 0.0023 µM |
| ILLENLMRA | 0.019 µM |
| ILSPTAPSV | 0.0061 µM |
| FLGDDPSPA | 0.013 µM |
| FIAPLGFSL | 0.0065 µM |
| FLNQANCKI | 0.458 µM |
| CLSDLLGFL | 0.088 µM |
| TLSGMGYYL | 0.148 µM |
| RMLGDVMAV | 0.0017 µM |
| FLTPLSVTL | 0.0047 µM |
| YLCSLAVVL | 0.017 µM |
| HLMRDPALL | 0.037 µM |
| ILYSVLQHL | 0.055 µM |
| TLRDTIPDC | 1.39 µM |
| VLNTLMFMV | 0.014 µM |
| ALMAGYFKI | 0.049 µM |
| SLYDVEFDA | 0.0097 µM |
| LLYNGAYHL | 0.0076 µM |

| Sequence | IC50 |
| --- | --- |
| SMDDDTYVA | 0.546 µM |
| RLARCLTPA | 0.023 µM |
| GVVIIAALV | 1.08 µM |
| YLCPVLVFV | 0.0095 µM |
| MILALTVAI | 0.045 µM |
| FILDALAQA | 0.0026 µM |
| KMSYPQFLA | 1.4 µM |
| MLYVIFPGT | 0.317 µM |
| FLRYHCPGL | 0.188 µM |
| KLLWAVEPL | 0.012 µM |
| ILVVSLLLV | 0.205 µM |
| ALHQCFTEL | 0.831 µM |
| FIYLALLEA | 0.011 µM |
| YLLNYAGRI | 0.194 µM |
| RLPRYLACL | 0.076 µM |
| MMLRDRWSL | 0.014 µM |
| FWMSPVFNL | 0.096 µM |
| RLQTYLTDI | 0.827 µM |
| ELFGEAFEV | 0.09 µM |
| LLAKMLFYL | 0.0056 µM |
| RLQHLVAEI | 0.142 µM |
| LLYDLSTTA | 0.043 µM |

| Sequence | IC50 |
| --- | --- |
| LITNYLPSV | 0.0052 µM |
| GLISFYNFL | 0.0015 µM |
| YLSRTQRLA | 0.11 µM |
| SLRNVLAAV | 0.0054 µM |
| ILMHATYFL | 0.0012 µM |
| ALGMRGLVL | 0.491 µM |
| VLLGAPVVV | 0.014 µM |
| FLHDVENFL | 0.012 µM |
| CMFGVVSPA | 0.0095 µM |
| FLSDSEAEA | 0.0026 µM |
| VTTDSVRAL | 5.35 µM |
| VLFSGPSPL | 0.0079 µM |
| FVVWALLGL | 0.196 µM |
| FLQPTADLL | 0.026 µM |
| ELACLLMYL | 0.054 µM |
| AVGELLAPV | 0.084 µM |
| FLHLYLFLT | 0.564 µM |
| FLSAKTLTV | 0.011 µM |
